# T1: SFB-TBC1D31 (human, UniProt Q96DN5-1 1-1066)
# T1 construct: In the SFB pull-down it was left on the streptavidin beads; in the GST pull-down it was eluted with biotin; source: HEK293T, transfected, purified (streptavidin-conjugated beads, eluted with biotin)
# T1 sequence (looked up): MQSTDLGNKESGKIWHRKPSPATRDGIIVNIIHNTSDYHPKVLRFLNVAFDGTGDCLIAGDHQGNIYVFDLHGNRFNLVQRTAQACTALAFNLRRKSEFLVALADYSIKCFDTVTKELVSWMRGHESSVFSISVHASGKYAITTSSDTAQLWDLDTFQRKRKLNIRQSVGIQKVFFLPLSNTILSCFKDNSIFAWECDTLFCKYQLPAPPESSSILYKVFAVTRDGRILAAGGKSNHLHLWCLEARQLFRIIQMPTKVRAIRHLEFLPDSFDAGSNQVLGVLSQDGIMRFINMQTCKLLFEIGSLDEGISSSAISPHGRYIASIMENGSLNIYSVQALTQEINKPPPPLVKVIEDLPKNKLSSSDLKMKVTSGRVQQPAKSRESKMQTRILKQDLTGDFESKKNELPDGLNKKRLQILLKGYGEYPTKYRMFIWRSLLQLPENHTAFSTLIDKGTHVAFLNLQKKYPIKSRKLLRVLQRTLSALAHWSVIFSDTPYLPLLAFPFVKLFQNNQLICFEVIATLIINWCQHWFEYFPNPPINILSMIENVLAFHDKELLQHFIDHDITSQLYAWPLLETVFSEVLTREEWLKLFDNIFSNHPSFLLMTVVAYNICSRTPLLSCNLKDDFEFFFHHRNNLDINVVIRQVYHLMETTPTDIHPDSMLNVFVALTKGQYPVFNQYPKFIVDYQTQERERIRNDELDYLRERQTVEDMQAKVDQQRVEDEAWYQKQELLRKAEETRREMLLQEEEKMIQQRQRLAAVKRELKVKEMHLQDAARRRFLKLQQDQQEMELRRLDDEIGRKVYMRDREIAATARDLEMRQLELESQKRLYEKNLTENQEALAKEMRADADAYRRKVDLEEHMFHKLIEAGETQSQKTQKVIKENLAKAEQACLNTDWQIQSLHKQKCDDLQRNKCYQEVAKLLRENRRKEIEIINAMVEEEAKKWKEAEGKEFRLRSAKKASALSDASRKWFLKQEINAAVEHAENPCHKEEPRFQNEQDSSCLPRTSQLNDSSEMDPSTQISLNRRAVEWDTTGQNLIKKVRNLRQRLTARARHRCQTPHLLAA
# B1: GST-Rab22A (natural protein, human, UniProt Q9UL26 1-194, looked up)
# chain: MALRELKVCLLGDTGVGKSSIVWRFVEDSFDPNINPTIGASFMTKTVQYQNELHKFLIWDTAGQERFRALAPMYYRGSAAAIIVYDITKEETFSTLKNWVKELRQHGPPNIVVAIAGNKCDLIDVREVMERDAKDYADSIHAIFVETSAKNAININELFIEISRRIPSTDANLPSGGKGFKLRRQPSEPKRSCC
# notes: On glutathione beads in the GST pull-down; eluted with reduced glutathione for the SFB pull-down; source: E. coli BL21, purified (Glutathione-Sepharose)
# Target: T1, SFB-TBC1D31
# Test: pull-down; GST pull-down in vitro: GST-Rab22A on Glutathione-Sepharose incubated with eluted SFB-TBC1D31 in NETN buffer, 3 h, 4 °C; detection by Flag antibody
# Details: both partners purified
binder,measurement,value
B1,binding result,binds

# Source: paper PMC11516053, “Genomic Amplification of TBC1D31 Promotes Hepatocellular Carcinoma Through Reducing the Rab22A‐Mediated Endolysosomal Trafficking and Degradation of EGFR” (Advanced Science, 2024)
